We go through 1 substance from patent US20040208873A1.

The assay addresses recombinant human IL-8, 72 aa form (monocyte derived) (human) (UniProt P10145). Put plainly: cell-based or functional assay.

recombinant human IL-8, 72 aa form (monocyte derived) (human), sequence (P10145 28-99 limits assumed): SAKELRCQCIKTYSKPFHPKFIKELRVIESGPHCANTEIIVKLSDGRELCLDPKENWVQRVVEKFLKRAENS

As for “irrelevant human isotype control antibody (Example 8)”, the expression level of CD11b on IL-8 stimulated PMN (MFI, flow cytometry) came out at 2400 MFI and the expression of CD62L on IL-8 stimulated PMN (MFI, flow cytometry) turned out to be 150 MFI.
